Data reported in the DeepSol protein solubility set.

Assay: soluble on expression in E. coli; label from the status in PepcDB or PDB records

| Sequence | soluble on expression in E. coli |
| --- | --- |
| MKKVLLTAINSQFIHSNLAVRYLKAYAKELDLQIKIREFSINDRLERIFEEIMYEKPDIVGFSCYIWNGEYVDKLSNLIKRVDENIQIFYGGPEVSFDCREVLLNSSADFLIEGEGEESFKEFLKWKLENGFDRKDLKIKGVYSKCQNQILYGGQREALDMNLLEFPYNEEDDLSNKIIYYEASRGCPFNCKYCLSSTIRGVRFLNPDRVKRELKFLADKKVKIVKFVDRTFNANPKFAMEIWKYLMELDTETVFHFEITADIVTEDEIELLKNAPKGRFQFEVGVQSTNNEVLKNVNRYIEFKDIKEIVMKLEEGKNINQHLDLIVGLPGEDFNSFKNSFNDVYSIGPEKLQIGFLKLLKGSSMREEAEKWGMSYSPYHPYEILRTKDISFEEISILKRVDSVVDKYYNTGKFDHIVEFLISDFETPFDFYYKLSEYFYHKGYFNRSISASEYYKVFLDFNKEILKKENDVLEEIVKFEYLKFNKKSWLPPFLTRLNVKEEEQAIKEKLKEENKFDKKLHLEKFSIDIDRYITKKEIVYKEMYHIFN | not soluble |
| MKKVRKLYEGKAKIVYETDEKDKLILEFKDVATAFDGVKKEEIKGKGSLNNEISSLIFEILEDHGIKTHYIKKLSDREMLVWRAERFPVEVVVRNYAAGSFVKRYGVKEGTKLEQPLVEFFMKSDELHDPMVCINHIKVLKLAPAELVPEMEKIALKVNEILKKIFEEKGILLVDFKLEFGRLPSGELAIVDEISPDSMRLWDKSTGENWIKTDSV | soluble |
| MKKYVCTVCGYEYDPAEGDPDNGVKPGTSFDDLPADWVCPVCGAPKSEFEAA | soluble |
| MKLDDLNLFRQVVENGSYTAASRKTLIPVATITRRIQALEDSLDIRLLNRHARKLSLTEAGQKFYDECAPILATLVNTSEYLGEECRGAAGKLKIAAPSNLTKRMIQPILNKFMLLYPDISINLTMSNQPEQLDPTDWDIIFRVGKQRDSSLIARQIGSLEDILVASPSYLEKNSEPTHAQELHKHSLLKGNPLMRWRLTNKDGESVTITDAGRFEASELNVIRMACSNGLGITLMPDIMISQYLEEGSLIRVLSDWSANPRDIYMIYNYKDHQPEKVRLFIDFVSNHIPD | not soluble |
| MKLDIKKDLKNIAWHCTMCGGCCDSPSVSKKDVANIAGFLKIPFDEVVKKYLVNFDGMTGRLKTSKEKCIFLDENNKCKIYRVRPIICRLRPYSVQIKDQNLVLTYDGWFLENCKGLFMGDLDPDEEYYKHAETVLKYLGEEENTPEEFFEKAKKRLKKSKKLEHHHHHH | soluble |
| MKLFISPGACSLAPHIALRETGADFEAVKVDLAVRKTEAGEDFLTVNPSGKVPALTLDSGETLTENPAILLYIADQNPASGLAPAEGSLDRYRLLSRLSFLGSEFHKAFVPLFAPATSDEAKAAAAESVKNHLAALDKELAGRDHYAGNAFSVADIYLYVMLGWPAYVGIDMAAYPALGAYAGKIAQRPAVGAALKAEGLA | soluble |
| MKLKHKRDDKMRFDIKKVLELAEKDFETAWRETRALIKDKHIDNKYPRLKPVYGKPHPVMETIERLRQAYLRMGFEEMINPVIVDEMEIYKQFGPEAMAVLDRCFYLAGLPRPDVGLGNEKVEIIKNLGIDIDEEKKERLREVLHLYKKGAIDGDDLVFEIAKALNVSNEMGLKVLETAFPEFKDLKPESTTLTLRSHMTSGWFITLSSLIKKRKLPLKLFSIDRCFRREQREDRSHLMSYHSASCVVVGEDVSVDDGKVVAEGLLAQFGFTKFKFKPDEKKSKYYTPETQTEVYAYHPKLGEWIEVATFGVYSPIALAKYNIDVPVMNLGLGVERLAMIIYGYEDVRAMVYPQFYEYRLSDRDIAGMIRVDKVPILDEFYNFANELIDICIANKDKESPCSVEVKREFNFNGERRVIKVEIFENEPNKKLLGPSVLNEVYVYDGNIYGIPPTFEGVKEQYIPILKKAKEEGVSTNIRYIDGIIYKLVAKIEEALVSNVDEFKFRVPIVRSLSDINLKIDELALKQIMGENKVIDVRGPVFLNAKVEIK | soluble |
| MKLKNTLLASALLSAAAFSVHAATELTPEQAAALKPYDRIVITGRFNAIGDAVSAVSRRADKEGAASFYVVDTSEFGNSGNWRVVADVYKADAPKADAPKNRVINGIVELPKDQAVQLEPYDTVTVQGFYRSQPEVNDAITKAAKQKGAYAFYIVRQIDANQGGNQRITAFIYKQDAKKRIVQSPDAIPADSEAGRAALAQGGEAAKKVEIPGVATSASPSAEVGRFFETQSSKGGRYTVTLPDGTKVEELNKATAAMMVPFDSVKFTGNYGNMTEISYQVAKRAAKKGAKYYHITRQWQERGNNITISADLYKLEHHHHHH | soluble |
| MKLQKQLLEAVEHKQLRPLDVQFALTVAGDEHPAVTLAAALLSHDAGEGHVCLPLSRLENNEASNPLLATCVSEIGELQNWEECLLASQAVSRGDEPTPMILCGDRLYLNRMWCNERTVARFFNEVNHTIEVDEALLAQTLDKLFPVSDEINWQKVAAAVALTRRISVISGGPGTGKTTTVAKLLAALIQMADGERCRIRLAAPTGKAAARLTESLGKALRQLPLTDEQKKRIPEDASTLHRLLGAQPGSQRLRHHAGNPLHLDVLVVDEASMIDLPMMSRLIDALPDHARVIFLGDRDQLASVEAGAVLGDICAYANAGFTAERARQLSRLTGTHVPAGTGTEAASLRDSLCLLQKSYRFGSDSGIGQLAAAINRGDKTAVKTVFQQDFTDIEKRLLQSGEDYIAMLEEALAGYGRYLDLLQARAEPDLIIQAFNEYQLLCALREGPFGVAGLNERIEQFMQQKRKIHRHPHSRWYEGRPVMIARNDSALGLFNGDIGIALDRGQGTRVWFAMPDGNIKSVQPSRLPEHETTWAMTVHKSQGSEFDHAALILPSQRTPVVTRELVYTAVTRARRRLSLYADERILSAAIATRTERRSGLAALFSSRE | not soluble |
| MKLRHLPLIAAIGLFSTVTLAAGYTGPGATPTTTTVKAALEAADDTPVVLQGTIVKRIKGDIYEFRDATGSMKVEIDDEDFPPMEINDKTRVKLTGEVDRDLVGREIDVEFVEVIK | not soluble |
| MKLSHDCIRDILLFSESLPYNEPAFGDKIFKSDLLKKYSSEEINYAVSKLGDDDAQLIKGYVKFASNKPYMTCISSLTFDGHKYLDNIRDPKIWKESKKISSKLASVSIDIMSEIAAKVITKTLGLD | not soluble |
| MKLSVVMPVYNEKATLRAIYEQVAAVTIDKEIILVDDCSTDGTREIVRELGATGATVVLHDRNMGKGAALRSGFRHVTGDVVLIQDADLEYDPGQYPLLIQPILNGEVDVVYGSRFLSGERSLGMSFWNRAGNRILTYLSNTLTKLELTDVETCYKVFSRDVLERITIEENRFGCEPEITAKLAKLGVRIREVGISYRGRTSAEGKKIGWRDFISSVRCIAKYTLT | soluble |
| MKLVIDAGHGGYDSGAVGNGLVEKNLTLQIARRVRDILTVNYPITIKMTRDSDVFISLSERANIANAFSADYFISFHINSGGGTGFESYIYNALSNSSTAYAKQQKMHTAVNPVLTKYGLRDRGAKKENYAVLRETAMDAILTETAFIDTAFDANLLKNPQFIEDLSQAYANGIAAIFGVAPNPQPPNPQPVPQTKGIAYVLGKNVNLRNGPSTSSSVIRQLNSPESYVVYQESNGWLDLGNGQWVYNDSSYINFVKTSNSDGSPIGVAYIQGMNVNLRSGPSTTSAVIRQLNSPESYLVYINENGWLNLGGNQWVYNDPAYIKYTQY | not soluble |
| MKLYFIINPAAKNGRSVSIWKQLQPLLDREGIAYQAYWTSRKGEGKEIARRIGEESVEPTVIAAVGGDGTVHEVVNGAGSFPHVAIGCIPAGTGNDFVRGFRLARKPKQALQRLLSDVRSGKDLAFDLGRFASSAVPDGVFANSIGCGFDAHIARMANRSKWKGRLNRFGLGSFIYVFYLVRELFRYQPVDLDICVDGQNYSFLKAWLATASNHPYYGGGMRIAPSVRADDGLLHVTVVGPMPRWKILALFLTVFWGGHVRMKEVCVFTGRNVRIRPAAPVLIHADGEDAGEGEVFAWIEPGRLRVIGVKTR | not soluble |
| MKMNEIVASTQFPNTIETITKDLKALGVEKGMTIIVHSSLSSIGWISGGAVAVVEALMKVVTEEGTIIMPTQSSDLSDPKHWSRPPVPEDWWQIIRDNVPAFDSRITPTRGMGEIVECFRTYPNVVRSNHPLGSFAAWGKHAVEITMNHSLSMSFGEESPLRKIYDLDGYVLLIGVGYDSNTSVHLSEVRSGACELIQVGAPIIENGERVWKEFVEMDYESEKFVEIGVEFERKGTVKNGKIGNATCRLMKQRDIVDFGTEWFRKKN | not soluble |
| MKMPEHTDTPKEKILVYIRAEKQKTLHRRQVCINDIASVYCKYSRYEGQIKGIIVDKIRGKKSVISVMKIIEQITEIYDDAQVISIGEPEVLVEYDDNSKNKILEA | soluble |
| MKNAETPVFKLVLFGPESSLGNALMVELLSRQHEVIAVVDDLNRHSPRPGLHFKIGGLGDAHQAEQGAAGGSAVIALLPALAPGDLPGQARLSEALVAGLARTTIRRLLLVGDFDVLDEPGKYSEVERECVAQVVDGLQRSALHWTLINAPQELAGLGMEHFRSTEGTLEPGLAEPLRRLSRIAAGMVDMLELDLHRSEHLNFVV | not soluble |
| MKNKLLFMMLTILGAPGIAAAAGYDLANSEYNFAVNELSKSSFNQAAIIGQAGTNNSAQLRQGGSKLLAVVAQEGSSNRAKIDQTGDYNLAYIDQAGSANDASISQGAYGNTAMIIQKGSGNKANITQYGTQKTAIVVQRQSQMAIRVTQR | not soluble |
| MKNLAIFDLDNTLINTDSDHAWPQYLIKKGLVDAAETEAQNEKFYRDYQNGCLDIDAFLKLHLAPLARYSKEELAEFHREFMAEYIIPHISPMQRMLVQSHQMAGDETLVISSTNEFIITPVCRLFGIANMIGTQLETGPDGRYTGNYIGTPSLKEGKITRLNQWLAERGETLESYGKTYFYSDSKNDLPLLRLVSEPVAVNPDAELEKEAKEKGWPVLNFK | not soluble |
| MKNLEKCILCGSHNIVPHWKNVRSYNVSKCLDCSFLFLHEIIDDHELENYYSQSYFMASYAKTENNLIDAANNPKITAEAKEYANLIKLHHPEAHNVGEIGCSWGYLLYNLQNFGYSAKGFELSKTTAEMGSKQLGINITSGFFETQYNQFDVLILRHVLEHVPDPQDLLEKIYDSIKKDGLFILEGPNLDSISSRLFGKNVSWVSPPDHISFPNFISLIMACEKLGFTCIHKSSRRGRGISIFHQALLNSVGLMFGGKEKAKVNLGGINEKPNNQQLSSLKSAALKIVDFLDFLSSPMQPFLKQALLEEEMLIIFKKLEHHHHHH | not soluble |
| MKNLVGRFMRYVTFDTQSKPKNHHCPSSTGQKVFAQALYEELLELGLSDVSLDDHGYVMAKLPSNVNYPVPAIGFIAHMDTSPDACGKHVKPQIVEDYQGGDIALGKGDEVLSPIQYPDLHLLHGYNLITTDGTTLLGADNKAGIAEIITAMEILLADPSIPHGDISIAFTPDEEIGRGANHFDVAKFAAQWAYTIDGGPIGELEYENFNAATATVVCHGVNVHPGTAKDKMVNAMHIAAQFILMMPENETPQHTEGYQGFYHLSGATMSVAKSELKYILRDFEAIGLQARQALMQAKVAELNQQLKKGRVEVSFEQSYSNMKEKVEPHPHIIELAKQAMVACDVEPKIKPIRGGTDGARLSFMGLPCPNIFTGGYNFHGIHEFITIEGMEAAVQVIVKLAEKTALHYRQ | not soluble |
| MKNQLGQLALEQAKTFGGKLEVQPKVDIKTKHDLSIAYTPGVASVSSAIAKDKTLAYDLTTKKNTVAVISDGTAVLGLGDIGPEAAMPVMEGKAALFKAFAGVDAIPIVLDTKDTEEIISIVKALAPTFGGINLEDISAPRCFEIEQRLIKECHIPVFHDDQHGTAIVVLAAIFNSLKLLKKSLDEVSIVVNGGGSAGLSITRKLLAAGATKVTVVDKFGIINEQEAAQLAPHHLDIAKVTNREFKSGTLEDALEGADIFIGVSAPGVLKAEWISKMAARPVIFAMANPIPEIYPDEALEAGAYIVGTGRSDFPNQINNVLAFPGIFRGALDARAKTITVEMQIAAAKGIASLVPDDALSTTNIIPDAFKEGVAEIVAKSVRSVVLKS | not soluble |
